Results taken from patent publication US20260250318A1, “COMPOSITIONS AND METHODS FOR CROSSING THE BLOOD BRAIN BARRIER” (VOYAGER THERAPEUTICS, INC., priority 2022, published 2026).
Where “and” joins values, the source holds several entries; their conditions need not be identical. Equal entries are not always repeated.

T1: His-tagged ALPL (recombinant, soluble; SPR, BLI and ELISA of Examples 8 and 13) (UniProt P05186 18-502)
T1 sequence: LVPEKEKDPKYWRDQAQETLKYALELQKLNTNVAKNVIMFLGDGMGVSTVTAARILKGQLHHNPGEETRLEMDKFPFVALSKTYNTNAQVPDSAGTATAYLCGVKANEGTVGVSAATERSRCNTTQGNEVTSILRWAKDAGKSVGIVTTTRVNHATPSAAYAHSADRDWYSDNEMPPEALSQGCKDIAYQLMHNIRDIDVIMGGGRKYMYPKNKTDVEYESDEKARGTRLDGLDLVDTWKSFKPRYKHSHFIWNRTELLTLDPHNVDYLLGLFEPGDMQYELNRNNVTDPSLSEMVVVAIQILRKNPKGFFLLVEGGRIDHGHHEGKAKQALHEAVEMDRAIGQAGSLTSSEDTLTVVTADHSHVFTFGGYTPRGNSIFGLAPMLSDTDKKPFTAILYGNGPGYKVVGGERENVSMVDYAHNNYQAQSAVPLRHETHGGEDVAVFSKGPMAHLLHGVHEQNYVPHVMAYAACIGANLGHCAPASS

T2: human ALPL expressed on cells (alkaline phosphatase tissue-nonspecific isozyme, NM_000478.4) (human, UniProt P05186 18-501)
T2 sequence: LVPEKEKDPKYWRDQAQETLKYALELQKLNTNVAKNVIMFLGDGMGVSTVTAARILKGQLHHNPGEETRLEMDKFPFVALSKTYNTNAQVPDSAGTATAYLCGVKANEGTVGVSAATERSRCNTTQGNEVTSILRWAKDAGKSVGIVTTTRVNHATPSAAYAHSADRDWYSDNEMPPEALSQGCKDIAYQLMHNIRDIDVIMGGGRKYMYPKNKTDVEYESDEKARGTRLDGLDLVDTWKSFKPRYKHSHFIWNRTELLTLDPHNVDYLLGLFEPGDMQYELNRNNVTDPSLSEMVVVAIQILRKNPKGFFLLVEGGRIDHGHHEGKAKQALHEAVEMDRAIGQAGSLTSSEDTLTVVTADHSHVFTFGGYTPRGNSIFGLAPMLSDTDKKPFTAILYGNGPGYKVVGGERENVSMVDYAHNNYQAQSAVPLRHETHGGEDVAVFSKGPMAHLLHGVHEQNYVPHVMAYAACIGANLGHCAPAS

T3: AAVR (universal AAV entry factor) expressed on HEK 293T cells (UniProt Q8IZA0 1-1049)
T3 construct: whole, on cells; also called AAVR positive control
T3 sequence: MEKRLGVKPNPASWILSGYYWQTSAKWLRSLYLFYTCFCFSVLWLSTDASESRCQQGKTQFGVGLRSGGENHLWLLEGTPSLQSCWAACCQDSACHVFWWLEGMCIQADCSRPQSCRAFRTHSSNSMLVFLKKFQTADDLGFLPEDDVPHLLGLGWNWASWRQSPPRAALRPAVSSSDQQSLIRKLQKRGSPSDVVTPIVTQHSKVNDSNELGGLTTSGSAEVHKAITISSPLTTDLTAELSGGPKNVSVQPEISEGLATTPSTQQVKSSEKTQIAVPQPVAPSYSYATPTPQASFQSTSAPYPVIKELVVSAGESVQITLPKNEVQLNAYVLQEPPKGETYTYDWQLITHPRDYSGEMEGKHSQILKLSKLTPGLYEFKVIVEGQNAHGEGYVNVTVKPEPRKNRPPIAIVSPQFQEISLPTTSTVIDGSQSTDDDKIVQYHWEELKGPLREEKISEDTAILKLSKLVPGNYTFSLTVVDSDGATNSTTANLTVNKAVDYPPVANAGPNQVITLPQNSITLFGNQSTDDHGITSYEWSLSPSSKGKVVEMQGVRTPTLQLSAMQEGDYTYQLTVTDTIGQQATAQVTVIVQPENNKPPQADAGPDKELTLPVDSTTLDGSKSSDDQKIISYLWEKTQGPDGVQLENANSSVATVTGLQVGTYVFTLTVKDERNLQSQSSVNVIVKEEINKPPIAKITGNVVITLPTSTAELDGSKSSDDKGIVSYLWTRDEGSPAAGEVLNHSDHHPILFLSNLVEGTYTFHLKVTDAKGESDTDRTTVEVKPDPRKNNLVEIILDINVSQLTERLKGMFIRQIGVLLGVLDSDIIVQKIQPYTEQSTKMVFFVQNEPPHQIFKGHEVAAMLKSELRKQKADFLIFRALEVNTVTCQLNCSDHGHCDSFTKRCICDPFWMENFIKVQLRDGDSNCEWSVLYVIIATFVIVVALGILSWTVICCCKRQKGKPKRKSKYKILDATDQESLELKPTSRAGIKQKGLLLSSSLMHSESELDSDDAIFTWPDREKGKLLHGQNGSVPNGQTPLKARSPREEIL

T4: His-tagged ALPL (Homo sapiens, UniProt P05186)
T4 sequence (P05186 18-501): T2 sequence

B1: TTM-002 capsid variant (AAV particle comprising the TTM-002 AAV9 capsid variant) (other)
chain 1: MAADGYLPDWLEDNLSEGIREWWALKPGAPQPKANQQHQDNARGLVLPGYKYLGPGNGLDKGEPVNAADAAALEHDKAYDQQLKAGDNPYLKYNHADAEFQERLKEDTSFGGNLGRAVFQAKKRLLEPLGLVEEAAKTAPGKKRPVEQSPQEPDSSAGIGKSGAQPAKKRLNFGQTGDTESVPDPQPIGEPPAAPSGVGSLTMASGGGAPVADNNEGADGVGSSSGNWHCDSQWLGDRVITTSTRTWALPTYNNHLYKQISNSTSGGSSNDNAYFGYSTPWGYFDFNRFHCHFSPRDWQRLINNNWGFRPKRLNFKLFNIQVKEVTDNNGVKTIANNLTSTVQVFTDSDYQLPYVLGSAHEGCLPPFPADVFMIPQYGYLTLNDGSQAVGRSSFYCLEYFPSQMLRTGNNFQFSYEFENVPFHSSYAHSQSLDRLMNPLIDQYLYYLSKTINGHDSPHKSGQNQQTLKFSVAGPSNMAVQGRNYIPGPSYRQQRVSTTVTQNNNSEFAWPGASSWALNGRNSLMNPGPAMASHKEGEDRFFPLSGSLIFGKQGTGRDNVDADKVMITNEEEIKTTNPVATESYGQVATNHQSAQAQAQTGWVQNQGILPGMVWQDRDVYLQGPIWAKIPHTDGNFHPSPLMGGFGMKHPPPQILIKNTPVPADPPTAFNKDKLNSFITQYSTGQVSVEIEWELQKENSKRWNPEIQYTSNYYKSNNVEFAVNTEGVYSEPRPIGTRYLTRNL
chain 2: TAPGKKRPVEQSPQEPDSSAGIGKSGAQPAKKRLNFGQTGDTESVPDPQPIGEPPAAPSGVGSLTMASGGGAPVADNNEGADGVGSSSGNWHCDSQWLGDRVITTSTRTWALPTYNNHLYKQISNSTSGGSSNDNAYFGYSTPWGYFDFNRFHCHFSPRDWQRLINNNWGFRPKRLNFKLFNIQVKEVTDNNGVKTIANNLTSTVQVFTDSDYQLPYVLGSAHEGCLPPFPADVFMIPQYGYLTLNDGSQAVGRSSFYCLEYFPSQMLRTGNNFQFSYEFENVPFHSSYAHSQSLDRLMNPLIDQYLYYLSKTINGHDSPHKSGQNQQTLKFSVAGPSNMAVQGRNYIPGPSYRQQRVSTTVTQNNNSEFAWPGASSWALNGRNSLMNPGPAMASHKEGEDRFFPLSGSLIFGKQGTGRDNVDADKVMITNEEEIKTTNPVATESYGQVATNHQSAQAQAQTGWVQNQGILPGMVWQDRDVYLQGPIWAKIPHTDGNFHPSPLMGGFGMKHPPPQILIKNTPVPADPPTAFNKDKLNSFITQYSTGQVSVEIEWELQKENSKRWNPEIQYTSNYYKSNNVEFAVNTEGVYSEPRPIGTRYLTRNL
chain 3: MASGGGAPVADNNEGADGVGSSSGNWHCDSQWLGDRVITTSTRTWALPTYNNHLYKQISNSTSGGSSNDNAYFGYSTPWGYFDFNRFHCHFSPRDWQRLINNNWGFRPKRLNFKLFNIQVKEVTDNNGVKTIANNLTSTVQVFTDSDYQLPYVLGSAHEGCLPPFPADVFMIPQYGYLTLNDGSQAVGRSSFYCLEYFPSQMLRTGNNFQFSYEFENVPFHSSYAHSQSLDRLMNPLIDQYLYYLSKTINGHDSPHKSGQNQQTLKFSVAGPSNMAVQGRNYIPGPSYRQQRVSTTVTQNNNSEFAWPGASSWALNGRNSLMNPGPAMASHKEGEDRFFPLSGSLIFGKQGTGRDNVDADKVMITNEEEIKTTNPVATESYGQVATNHQSAQAQAQTGWVQNQGILPGMVWQDRDVYLQGPIWAKIPHTDGNFHPSPLMGGFGMKHPPPQILIKNTPVPADPPTAFNKDKLNSFITQYSTGQVSVEIEWELQKENSKRWNPEIQYTSNYYKSNNVEFAVNTEGVYSEPRPIGTRYLTRNL
B2: TTM-002: AAV9 capsid variant comprising HDSPHK (SEQ ID NO: 2) in loop IV (protein)
chain 1: B1 chain 1
chain 2: GHDSPHKSGQNQQT

Columns and labels:
[1] = molecular target: T1, His-tagged ALPL (recombinant, soluble; …)
[2] = molecular target: T2, human ALPL expressed on cells (alkaline …); test: cell-based or functional assay
[3] = molecular target: T3, AAVR (universal AAV entry factor) …; test: binding/internalization: AAV incubated 2 or 3 h with AAVR transfected HEK 293T cells, washed, viral genomes quantified
His-tagged ALPL = molecular target: T4, His-tagged ALPL; test: SPR pH dependence of capsid-ALPL interaction; format: binding; settings: association at pH 7.4, dissociation at pH 7.4 or 5.5
Text: The TTM-002 capsid variant was immobilized on the CM5 sensor chip. His-tagged ALPL and buffer was then passed over the AAV9 control or TTM-002 capsid variant to monitor the rate of association at pH 7.4 and dissociation, respectively, at a pH of 7.4 (FIG. 3A) or a pH of 5.5 (FIG. 3B).

Molecule | Kd [1] | kon [1] | luciferase activity, fold change relative to pCMV6 transfected HEK 293T cells (ALPL transfected cells) [2] | fold change in viral gene expression (2^-ΔΔCT) relative to pCMV6 transfected cells [3] | rate of dissociation from ALPL, pH 7.4 vs 5.5 (His-tagged ALPL)
B1 | 0.032 µM and 0.0268 µM and 0.047 µM and 0.0523 µM | 39800 M⁻¹ s⁻¹ and 43600 M⁻¹ s⁻¹ and 39400 M⁻¹ s⁻¹ and 98000 M⁻¹ s⁻¹ | 44 fold | 3.2 fold | –
B2 | – | – | – | – | increased when the pH was decreased from 7.4 to 5.5
